Measurements as given in publication PMC3563353 (2012).
Square brackets hold non-standard residues; d marks the D form. Primed or numbered codes have the meaning given here. Side chains are listed from the residue outwards. * marks the point of attachment. IRDye800CW′ = near-infrared fluorescent dye (LiCor), attached as the maleimide; Cy5 = Cy5 near-infrared fluorescent dye; Butanoyl(4-Ph) = O=C(CCCc1ccccc1)*; Mpa = O=C(O)CCS

Key:
[1] = target: T1, MC1RL-800; experiment: competition binding with Eu-NDP-α-MSH on A375/hMC1R cells
T1 chain: {Butanoyl(4-Ph)}-H[dF]RWGK([Mpa-IRDye800CW′])-NH2

[2] = target: T2, MC1RL-Cy5; experiment: as above
T2 chain: {Butanoyl(4-Ph)}-H[dF]RWGK([Mpa-Cy5])-NH2

Ki [1]: 0.4 nM
Ki [2]: 0.3 nM
B1: MC1R (protein)
chain: MAVQGSQRRLLGSLNSTPTAIPQLGLAANQTGARCLEVSISDGLFLSLGLVSLVENALVVATIAKNRNLHSPMYCFICCLALSDLLVSGSNVLETAVILLLEAGALVARAAVLQQLDNVIDVITCSSMLSSLCFLGAIAVDRYISIFYALRYHSIVTLPRARRAVAAIWVASVVFSTLFIAYYDHVAVLLCLVVFFLAMLVLMAVLYVHMLARACQHAQGIARLHKRQRPVHQGFGLKGAVTLTILLGIFFLCWGPFFLHLTLIVLCPEHPTCGCIFKNFNLFLALIICNAIIDPLIYAFHSQELRRTLKEVLTCSW
